In PMC4355278 (Journal of molecular biology, 2015):

Experiments:
Pex1/Pex6 complex = Pex1/Pex6 complex (Saccharomyces cerevisiae, UniProt P24004); assay: ATPase assay
SEC = target: the molecule itself; assay: SEC

Row | Binder | Kd (Pex1/Pex6 complex) [nM] | binding result (SEC)
1 | Pex15 cytosolic domain (protein) MAASEIMNNLPMHSLDSSLRDLLNDDLFIESDESTKSVNDQRSEVFQECVNLFIKRDIKDCLEKMSEVGFIDITVFKSNPMILDLFVSACDIMPSFTKLGLTLQSEILNIFTLDTPQCIETRKIILGDLSKLLVINKFFRCCIKVIQFNLTDHTEQEEKTLELESIMSDFIFVYITKMRTTIDVVGLQELIEIFIFQVKVKLHHKKPSPNMYWALCKTLPKLSPTLKGLYLSKDVSIEDAILNSIDNKIQKDKAKSKGKQRGVKQKIHHFHEPMLHNSSEEQVKVEDAFNQRTSTDSRLQSTGTAPRKKNNDITVLAGSFWAVLKHHFTRS | 185 | 
2 | Pex1-FLAG (recombinant) (natural protein, S. cerevisiae, UniProt P24004 1-1043, looked up) MTTTKRLKFENLRIQFSNAIVGNFLRLPHSIINVLESTNYAIQEFGIAVHSHNSDIPIVHLGWDGHDSGSSENVVLINPVLATVYDLNQKSPLVDLYIQRYDHTHLATEVYVTPETSDDWEIIDANAMRFQNGEILHQTRIVTPGETLICYLEGIVTKFKIDRVEPSMKSARITDGSLVVVAPKVNKTRLVKAEYGHSNKTILKNGAIQLLKKVILRSTVCKMDFPKDNLFVVYISDGAQLPSQKGYASIVKCSLRQSKKSDSDNKSVGIPSKKIGVFIKCDSQIPENHIALSSHLWDAFFTHPMNGAKIKLEFLQMNQANIISGRNATVNIKYFGKDVPTKSGDQYSKLLGGSLLTNNLILPTEQIIIEIKKGESEQQLCNLNEISNESVQWKVTQMGKEEVKDIIERHLPKHYHVKETGEVSRTSKDEDDFITVNSIKKEMVNYLTSPIIATPAIILDGKQGIGKTRLLKELINEVEKDHHIFVKYADCETLHETSNLDKTQKLIMEWCSFCYWYGPSLIVLDNVEALFGKPQANDGDPSNNGQWDNASKLLNFFINQVTKIFNKDNKRIRVLFSGKQKTQINPLLFDKHFVSETWSLRAPDKHARAKLLEYFFSKNQIMKLNRDLQFSDLSLETEGFSPLDLEIFTEKIFYDLQLERDCDNVVTRELFSKSLSAFTPSALRGVKLTKETNIKWGDIGALANAKDVLLETLEWPTKYEPIFVNCPLRLRSGILLYGYPGCGKTLLASAVAQQCGLNFISVKGPEILNKFIGASEQNIRELFERAQSVKPCILFFDEFDSIAPKRGHDSTGVTDRVVNQLLTQMDGAEGLDGVYILAATSRPDLIDSALLRPGRLDKSVICNIPTESERLDILQAIVNSKDKDTGQKKFALEKNADLKLIAEKTAGFSGADLQGLCYNAYLKSVHRWLSAADQSEVVPGNDNIEYFSINEHGRREENRLRLKTLLQQDVVHETKTSTSAASELTAVVTINDLLEACQETKPSISTSELVKLRGIYDRFQKDRNGEMPNGENSIDIGSRLSLM |  | binds
